{"source": "patent US20260217791A1", "about": "(COMPLEMENT THERAPEUTICS, published 2026)", "target": "human C3b (human, UniProt P01024 23-667; P01024 749-1663, limits assumed)", "sequence (P01024 23-667 limits assumed, form in doubt, chain 1 of 2)": "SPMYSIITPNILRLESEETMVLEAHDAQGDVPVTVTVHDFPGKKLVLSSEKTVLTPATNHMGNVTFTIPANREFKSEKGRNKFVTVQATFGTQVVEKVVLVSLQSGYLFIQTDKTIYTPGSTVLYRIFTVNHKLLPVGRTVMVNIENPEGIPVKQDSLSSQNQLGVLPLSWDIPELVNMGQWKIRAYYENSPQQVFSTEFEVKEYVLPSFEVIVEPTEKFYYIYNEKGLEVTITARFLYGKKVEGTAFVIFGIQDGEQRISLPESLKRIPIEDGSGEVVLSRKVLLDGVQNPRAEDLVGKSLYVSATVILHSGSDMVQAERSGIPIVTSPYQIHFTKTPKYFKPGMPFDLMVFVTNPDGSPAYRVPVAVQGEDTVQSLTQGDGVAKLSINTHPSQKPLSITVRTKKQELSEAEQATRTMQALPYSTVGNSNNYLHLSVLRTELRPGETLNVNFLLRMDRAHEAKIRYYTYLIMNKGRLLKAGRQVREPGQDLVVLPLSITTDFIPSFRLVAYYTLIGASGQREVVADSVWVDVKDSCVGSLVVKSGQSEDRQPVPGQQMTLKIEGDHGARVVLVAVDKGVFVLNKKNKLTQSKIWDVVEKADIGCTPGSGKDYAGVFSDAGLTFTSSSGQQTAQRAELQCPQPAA", "sequence (P01024 749-1663 limits assumed, form in doubt, chain 2 of 2)": "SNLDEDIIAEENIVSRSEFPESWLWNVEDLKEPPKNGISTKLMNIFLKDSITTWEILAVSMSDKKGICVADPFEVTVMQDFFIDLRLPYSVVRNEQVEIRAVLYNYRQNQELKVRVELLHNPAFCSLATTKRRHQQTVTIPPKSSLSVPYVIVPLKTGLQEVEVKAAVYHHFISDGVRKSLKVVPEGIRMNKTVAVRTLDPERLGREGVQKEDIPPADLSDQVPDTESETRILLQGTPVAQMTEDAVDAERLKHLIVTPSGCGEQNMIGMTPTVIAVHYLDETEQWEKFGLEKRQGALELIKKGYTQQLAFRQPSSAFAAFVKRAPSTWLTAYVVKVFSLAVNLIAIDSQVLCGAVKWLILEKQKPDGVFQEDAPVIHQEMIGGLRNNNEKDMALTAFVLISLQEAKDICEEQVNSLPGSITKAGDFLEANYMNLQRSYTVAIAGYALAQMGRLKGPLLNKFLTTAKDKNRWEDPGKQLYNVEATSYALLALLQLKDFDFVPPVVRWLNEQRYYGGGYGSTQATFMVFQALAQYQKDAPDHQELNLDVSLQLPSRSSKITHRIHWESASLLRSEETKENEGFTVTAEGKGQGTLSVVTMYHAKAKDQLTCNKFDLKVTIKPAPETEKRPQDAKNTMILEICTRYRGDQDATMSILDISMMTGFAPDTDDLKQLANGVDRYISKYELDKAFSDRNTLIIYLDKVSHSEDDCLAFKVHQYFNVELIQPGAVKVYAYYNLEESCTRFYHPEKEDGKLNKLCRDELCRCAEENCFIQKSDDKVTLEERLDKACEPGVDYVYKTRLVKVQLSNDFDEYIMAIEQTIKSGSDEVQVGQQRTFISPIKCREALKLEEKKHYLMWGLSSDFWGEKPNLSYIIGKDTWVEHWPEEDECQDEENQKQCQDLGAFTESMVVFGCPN", "assay": "cell-based or functional assay", "data": [{"binder": "small polypeptide comprising CCPs 8-10 of CR1 (SEQ ID NO:3) (receptor) not shown", "values": [{"measurement": "IC50 of inhibition of MAC formation in zymosan activated human serum (Wieslab Complement system Screen kit ELISA, FIG. 9)", "result": 125, "unit": "nM"}]}]}
